This note sets out measurements from patent publication US20120122214A1.

The target of this experiment is bovine serum albumin (bovine) (UniProt P02769). Put plainly: flow cytometry; iPS-MP in suspension with control fluorescent particles coated with only albumin, 37° C., 90 minutes.
bovine serum albumin (bovine), sequence (P02769 25-607 limits assumed): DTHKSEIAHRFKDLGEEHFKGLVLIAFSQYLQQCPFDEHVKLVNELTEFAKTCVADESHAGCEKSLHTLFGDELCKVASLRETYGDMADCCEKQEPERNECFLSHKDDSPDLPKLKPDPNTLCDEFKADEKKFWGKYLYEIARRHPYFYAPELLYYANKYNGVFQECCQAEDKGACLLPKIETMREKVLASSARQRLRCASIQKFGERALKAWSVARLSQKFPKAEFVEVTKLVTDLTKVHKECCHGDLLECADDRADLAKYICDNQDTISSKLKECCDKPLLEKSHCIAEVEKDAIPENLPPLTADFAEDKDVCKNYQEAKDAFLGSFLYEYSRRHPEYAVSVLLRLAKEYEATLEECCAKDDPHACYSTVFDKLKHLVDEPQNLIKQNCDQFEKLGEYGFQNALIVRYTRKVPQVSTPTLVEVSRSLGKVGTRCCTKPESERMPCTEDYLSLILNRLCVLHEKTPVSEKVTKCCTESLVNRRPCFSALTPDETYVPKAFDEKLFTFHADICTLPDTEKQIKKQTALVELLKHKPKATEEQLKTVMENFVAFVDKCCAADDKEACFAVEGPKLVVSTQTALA

Regarding “single-chain antibody (scFv) recognizing human β-amyloid peptide, derived from mouse hybridoma clone 3D6, fused to mouse IgG2a Fc portion and mouse Fc receptor (FcγRI) trans-cell membrane-cytoplasm portion, expressed on iPS-MP”, the mean fluorescence intensity was found to be 781 and the percent of cells bound to the beads was 25.5%.
